The values below come from the RNAGym collection of RNA variant scans (doi:10.7554/elife.80360).

B1: HDV Ribozyme (parent)
chain: GGCCGGCAUGGUCCCAGCCUCCUCGCUGGCGCCGGCUGGGCAACAUUCCGAGGGGACCGUCCCCUCGGUAAUGGCGAAUGGGACCCA

Variants of B1 are the subject of the series. Kind of series: self-cleavage, relative activity (ratio to wild type); higher = more cleavage; co-transcriptional.
In the case of GGCCGGCAUGGUCCCGGCCUCCUCGCUGGCGCCGGCUGGACAACAUUCCGAGGGGACCGUCCCCUCGGUAAUGGCGAAUGGGACCCA [A16G G40A], the self-cleavage came out at 1.13. As for GGCCGGCAUGGUCCCGGCCUCCUCGCUGGCGCCGGCUGGUCAACAUUCCGAGGGGACCGUCCCCUCGGUAAUGGCGAAUGGGACCCA [A16G G40U], the figure is 0.719; as for GGCCGGCAUGGUCCCUGCCUCCUCGCUGGCGCCGGCUGGGCAACAUUCCGAGGGGACCGUCCCCUCGGUAAUGGCGCAUGGGACCCA [A16U A77C], 0.0692; as for GGCCGGCAUGGUCCCGGCCUCCUCGCUGGCGCCGGCUGGGCAACAUUCCGAGGGGACCGGCCCCUCGGUAAUGGCGAAUGGGACCCA [A16G U60G], 0.554.

GGCCGGCAUGGUCCCGGCCUCCUCGCUGGCGCCGGCUGGGCAACAUUCCGAGGGGACCGACCCCUCGGUAAUGGCGAAUGGGACCCA [A16G U60A]: the self-cleavage was found to be 1.25. As for GGCCGGCAUGGUCCCGGCCUCCUCGCUGGCGCCGGCUAGGCAACAUUCCGAGGGGACCGUCCCCUCGGUAAUGGCGAAUGGGACCCA [A16G G38A], the figure is 0.213; as for GGCCGGCAUGGUCCCGGCCUCCUCGCUGGCGCCGGCUCGGCAACAUUCCGAGGGGACCGUCCCCUCGGUAAUGGCGAAUGGGACCCA [A16G G38C], 0.142. With GGCCGGCAUGGUCCCGGCCUCCUCGCUGGCGCCGGCUGGGCAACAUUCCGAGGGGACCCUCCCCUCGGUAAUGGCGAAUGGGACCCA [A16G G59C], the self-cleavage was 0.929.

For GGCCGGCAUGGUCCCGGCCUCCUCGCUGGCGCCGGCUGGGCAACAUUCCGACGGGACCGUCCCCUCGGUAAUGGCGAAUGGGACCCA [A16G G52C], the self-cleavage was 0.928. Next, GGCCGGCAUGGUCCCGGCCUCCUCGCUGGCGCCGGCUGGGCAACAUUCCGAUGGGACCGUCCCCUCGGUAAUGGCGAAUGGGACCCA [A16G G52U]: 1.07; GGCCGGCAUGGUCCCUGCCUCCUCGCUGGCGCCGGCUGGGCAACAUUCCGAGGGGACCGUCCCCUCGGUAGUGGCGAAUGGGACCCA [A16U A71G]: 0.782. Next, GGCCGGCAUGGUCCCUGCCUCCUCGCUGGCGCCGGCUGGGCAACAUUCCGAGGGGACCGUCCCCUCGGUAUUGGCGAAUGGGACCCA [A16U A71U]: 0.877.

For the variant GGCCGGCAUGGUCCCGGCCUCCUCGCUGGCGCCGGCUGGGCAACAUUCCGAGGGGACCGUCCCCUCGGUAAAGGCGAAUGGGACCCA [A16G U72A], the self-cleavage turned out to be 0.499. Regarding GGCCGGCAUGGUCCCGGCCUCCUCGCUGGCGCCGGCUGGGCAACAUUCCGAGGGGACCGUCCCCUCGGUAAGGGCGAAUGGGACCCA [A16G U72G], the self-cleavage was 0.332. Next, GGCCGGCAUGGUCCCGGCCACCUCGCUGGCGCCGGCUGGGCAACAUUCCGAGGGGACCGUCCCCUCGGUAAUGGCGAAUGGGACCCA [A16G U20A]: 0.138; GGCCGGCAUGGUCCCGGCCGCCUCGCUGGCGCCGGCUGGGCAACAUUCCGAGGGGACCGUCCCCUCGGUAAUGGCGAAUGGGACCCA [A16G U20G]: 0.145; GGCCGGCAUGGUCCCGGCCUCCUCGCUGGCGCCGGCUGGGCAACAUGCCGAGGGGACCGUCCCCUCGGUAAUGGCGAAUGGGACCCA [A16G U47G]: 1.14. Next, GGCCGGCAUGGUCCCGGCCUCCUCGCCGGCGCCGGCUGGGCAACAUUCCGAGGGGACCGUCCCCUCGGUAAUGGCGAAUGGGACCCA [A16G U27C]: 0.675; GGCCGGCAUGGUCCCGGCCUCCUCGCGGGCGCCGGCUGGGCAACAUUCCGAGGGGACCGUCCCCUCGGUAAUGGCGAAUGGGACCCA [A16G U27G]: 0.594. As to GGCCGGCAUGGUCCCGGCCUCCUCGCUGGCGCCGGCUGGGCAACAUUCCGAGGGGACCGUCCCCUCGGUAAUGGCGAACGGGACCCA [A16G U79C], the self-cleavage worked out at 1.08. As for GGCCGGCAUGGUCCCGGCCUCCUCGCUGGCGCCGGCUGGGCAACAUUCCGAGGGGACCGUCCCCUCGGUAAUGGCGAAGGGGACCCA [A16G U79G], the figure is 0.598; as for GGCCGGCAUGGUCCCGGCCUCCUCGCUGGCGCCGGCUGGGCAACAUUCCGAGGGGACCGUCCCCUCGGUAAUGGCGAAAGGGACCCA [A16G U79A], 0.997. For the variant GGCCGGCAUGGUCCCUGCCUCCUCGCUGGCGCCGGCUGGGCAACAUUCCGAGGGGGCCGUCCCCUCGGUAAUGGCGAAUGGGACCCA [A16U A56G], the self-cleavage turned out to be 0.831.

GGCCGGCAUGGUCCCUGCCUCCUCGCUGGCGCCGGCUGGGCAACAUUCCGAGGGGCCCGUCCCCUCGGUAAUGGCGAAUGGGACCCA [A16U A56C]: the self-cleavage came out at 0.906. As for GGCCGGCAUGGUCCCGGCCUCCUCGCUGGCUCCGGCUGGGCAACAUUCCGAGGGGACCGUCCCCUCGGUAAUGGCGAAUGGGACCCA [A16G G31U], the figure is 0.375.

Turning to GGCCGGCAUGGUCCCGGCCUCCUCGCUGGCGCCGGCUGGGCAACAUUCCGAGGGGACCGUCCCCUCGUUAAUGGCGAAUGGGACCCA [A16G G68U], the self-cleavage was 1.01.

For GGCCGGCAUGGUCCCGGCCUCCUCGCUGGCGCCGGCUGGGCAACAUUCCGAGGGGACCGUCCCCUCGAUAAUGGCGAAUGGGACCCA [A16G G68A], the self-cleavage turned out to be 0.928. Next, GGCCGGCAUGGUCCCGGCCUCCUCGCUGGCGCCGGCUGGGCAACAUUCCGAGGGGACCGUCCCCUCGCUAAUGGCGAAUGGGACCCA [A16G G68C]: 1.06; GGCCGGCAUGGUCCCUGCCUCCUCGCUGGCGCCGGCUGGGCUACAUUCCGAGGGGACCGUCCCCUCGGUAAUGGCGAAUGGGACCCA [A16U A42U]: 0.465. As to GGCCGGCAUGGUCCCGGCCUCCUCGCUGGCGCCGGCUGGGCAACAUUCCGAGGGGACCGUCCCCCCGGUAAUGGCGAAUGGGACCCA [A16G U65C], the self-cleavage was found to be 1.26.

On to GGCCGGCAUGGUCCCGGCCUCCUCGCUGGCGCCGGCUGGGCAACAUUCCGAGCGGACCGUCCCCUCGGUAAUGGCGAAUGGGACCCA [A16G G53C], for which the self-cleavage is 1.11. Next, GGCCGGCAUGGUCCCGGCCUCCUCGCUGGCGCCGGCUGGGCAACAUUCCGAGUGGACCGUCCCCUCGGUAAUGGCGAAUGGGACCCA [A16G G53U]: 1.02.
